Test results published in patent US20050054023.

Tests used:
[1] = system: T1, EGF RECEPTOR (Thr669) peptide RRELVEPLTPSGEA
T1 sequence: RRELVEPLTPSGEA

[2] = system: T2, MBPtide (Thr97) APRTPGGRR
T2 sequence: APRTPGGR

[3] = system: T3, TH (rat) Ser19 peptide RRAVSEQDAK
T3 sequence: RRAVSEQDAK

[4] = system: T4, TH (rat) Ser40 peptide GRRQSLIEDAR
T4 sequence: GRRQSLIEDAR

[5] = system: T5, TH (rat) Ser8 peptide PTPSAPSPQPK
T5 sequence: PTPSAPSPQPK

[6] = system: T6, rat TH-Ser31 peptide KQAEAVTSPR
T6 sequence: KQAEAVTSPR

ERKtide = system: T7, ERKtide
T7 sequence: ATGPLSPFGRR

peptide QATGPLSPGFRR-NH2 = system: T8, peptide QATGPLSPGFRR-NH2
T8 sequence: QATGPLSPGFRR

[7] = system: T9, peptide QATGPLSPGPFRR-NH2
T9 sequence: QATGPLSPGPFRR

[8] = system: T10, peptide YQATGPLSPGFRR-NH2
T10 sequence: YQATGPLSPGFRR

[9] = system: T11, peptide YQATGPLSPGPFRR-NH2
T11 sequence: YQATGPLSPGPFRR

[10] = system: T12, rat TH-Ser31 peptide AVTSPRFIGRR
T12 sequence: AVTSPRFIGRR

[11] = system: T13, rat TH-Ser31 peptide EAVTSPRFIGRR
T13 sequence: EAVTSPRFIGRR

[12] = system: T14, type 1 human TH-Ser31 peptide AIMSPRFIGRR
T14 sequence: AIMSPRFIGRR

[13] = system: T15, type 1 human TH-Ser31 peptide EAIMSPRFIGRR
T15 sequence: EAIMSPRFIGRR

[14] = system: T16, type 1 human TH-Ser31 peptide EAIMSPRFK
T16 sequence: EAIMSPRFK

[15] = system: T17, type 1 human TH-Ser31 peptide QAEAIMSPRFGRR-NH2
T17 sequence: QAEAIMSPRFGRR

[16] = system: T18, type 1 human TH-Ser31 peptide YQAEAIMSPRFIGRR-NH2
T18 sequence: YQAEAIMSPRFIGRR

[17] = system: T19, type 1 human TH-Ser31 peptide YQAEAIMSPRFIGRRQ
T19 sequence: YQAEAIMSPRFIGRRQ

[18] = system: T20, type 2 human TH-Ser31 peptide EAIMVRGQSPRFK
T20 sequence: EAIMVRGQSPRFK

[19] = system: T21, type 2 human TH-Ser31 peptide IMVRGQSPR
T21 sequence: IMVRGQSPR

[20] = system: T22, type 2 human TH-Ser31 peptide YIMVRGQSPR
T22 sequence: YIMVRGQSPR

extracellular signal-regulated protein kinase 2 (purified, recombinant, activated ERK2), sequence (P28482 2-360): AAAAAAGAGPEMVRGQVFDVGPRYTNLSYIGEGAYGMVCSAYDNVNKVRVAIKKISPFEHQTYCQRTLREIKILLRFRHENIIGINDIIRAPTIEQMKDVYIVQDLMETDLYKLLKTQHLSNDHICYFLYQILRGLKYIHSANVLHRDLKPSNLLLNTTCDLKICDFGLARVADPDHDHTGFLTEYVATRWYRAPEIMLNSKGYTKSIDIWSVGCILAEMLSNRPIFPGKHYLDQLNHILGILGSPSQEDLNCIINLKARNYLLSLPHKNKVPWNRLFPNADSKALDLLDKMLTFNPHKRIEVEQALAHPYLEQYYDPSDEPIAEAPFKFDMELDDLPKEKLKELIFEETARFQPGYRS
extracellular signal-regulated protein kinase 1 (purified, activated ERK1), sequence (P27361 2-379): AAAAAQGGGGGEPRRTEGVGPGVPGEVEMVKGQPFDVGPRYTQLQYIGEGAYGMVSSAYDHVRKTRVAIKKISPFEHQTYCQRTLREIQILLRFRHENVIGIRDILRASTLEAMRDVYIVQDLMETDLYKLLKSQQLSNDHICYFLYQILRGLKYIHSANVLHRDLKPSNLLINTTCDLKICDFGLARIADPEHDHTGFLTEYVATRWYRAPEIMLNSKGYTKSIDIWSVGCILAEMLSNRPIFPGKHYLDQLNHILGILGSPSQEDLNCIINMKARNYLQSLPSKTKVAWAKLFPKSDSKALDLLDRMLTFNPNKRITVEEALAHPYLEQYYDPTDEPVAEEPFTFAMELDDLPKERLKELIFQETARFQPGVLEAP

Substance: extracellular signal-regulated protein kinase 1 (purified, activated ERK1)
- RELATIVE ^32P INCORPORATION (% OF MBP) [1]: 13 % OF MBP
- RELATIVE ^32P INCORPORATION (% OF MBP) [2]: 28 % OF MBP
- ^32P incorporation [2]: ^32P incorporation into MBPtide (SEQ ID NO: 2) was 330 nmol/min/mg
- RELATIVE ^32P INCORPORATION (% OF MBP) [3]: < 1 % OF MBP
- RELATIVE ^32P INCORPORATION (% OF MBP) [4]: < 1 % OF MBP
- RELATIVE ^32P INCORPORATION (% OF MBP) [5]: < 1 % OF MBP
- RELATIVE ^32P INCORPORATION (% OF MBP) (myelin basic protein): 100 % OF MBP
- RELATIVE ^32P INCORPORATION (% OF MBP) [6]: 5 % OF MBP

Substance: extracellular signal-regulated protein kinase 2 (purified, recombinant, activated ERK2)
- Km(app) (ERKtide): 600 µM
- Vmax(app) Relative (ERKtide): 82 Relative
- apparent Vmax (ERKtide): The apparent Vmax of ERKtide (SEQ ID NO: 23) was 9.4 µmol/min/mg
- Km(app) [2]: 2000 µM
- Vmax(app) Relative [2]: 46 Relative
- RELATIVE ^32P INCORPORATION (% 3.0 µmol/min/mg), Mean (% 3.0 µmol/min/mg) (peptide QATGPLSPGFRR-NH2): 182
- RELATIVE ^32P INCORPORATION (% 3.0 µmol/min/mg), Mean (% 3.0 µmol/min/mg) [7]: 143
- RELATIVE ^32P INCORPORATION (% 3.0 µmol/min/mg), Mean (% 3.0 µmol/min/mg) [8]: 215
- RELATIVE ^32P INCORPORATION (% 3.0 µmol/min/mg), Mean (% 3.0 µmol/min/mg) [9]: 164
- RELATIVE ^32P INCORPORATION (% 3.3 µmol/min/mg) (% 3.3 µmol/min/mg) [10]: 9
- RELATIVE ^32P INCORPORATION (% 3.3 µmol/min/mg) (% 3.3 µmol/min/mg) [11]: 20
- Km(app) [6]: 1800 µM
- RELATIVE ^32P INCORPORATION (% 3.3 µmol/min/mg) (% 3.3 µmol/min/mg) [6]: 7
- Vmax(app) Relative [6]: 9 Relative
- RELATIVE ^32P INCORPORATION (% 3.3 µmol/min/mg) (% 3.3 µmol/min/mg) [12]: 29
- RELATIVE ^32P INCORPORATION (% 3.3 µmol/min/mg) (% 3.3 µmol/min/mg) [13]: 41
- Km(app) [14]: 1400 µM
- RELATIVE ^32P INCORPORATION (% 3.3 µmol/min/mg) (% 3.3 µmol/min/mg) [14]: 21
- Vmax(app) Relative [14]: 42 Relative
- RELATIVE ^32P INCORPORATION (% 3.0 µmol/min/mg), Mean (% 3.0 µmol/min/mg) [15]: 107
- RELATIVE ^32P INCORPORATION (% 3.0 µmol/min/mg), Mean (% 3.0 µmol/min/mg) [16]: 117
- RELATIVE ^32P INCORPORATION (% 3.3 µmol/min/mg) (% 3.3 µmol/min/mg) [16]: 100
- ^32P incorporation [16]: 100 percent 32p incorporation reflects 3.3 µmol/min/mg
- Km(app) [17]: 1000 µM
- RELATIVE ^32P INCORPORATION (% 3.0 µmol/min/mg), Mean (% 3.0 µmol/min/mg) [17]: 100
- RELATIVE ^32P INCORPORATION (% 3.3 µmol/min/mg) (% 3.3 µmol/min/mg) [17]: 80
- Vmax(app) Relative [17]: 80 Relative
- ^32P incorporation [17]: 100 percent ^32P incorporation reflects 3.0 µmol/min/mg
- RELATIVE ^32P INCORPORATION (% 3.3 µmol/min/mg) (% 3.3 µmol/min/mg) [18]: 2
- RELATIVE ^32P INCORPORATION (% 3.3 µmol/min/mg) (% 3.3 µmol/min/mg) [19]: 1
- RELATIVE ^32P INCORPORATION (% 3.3 µmol/min/mg) (% 3.3 µmol/min/mg) [20]: 1
